Holding throughout (details): tags: expressed from recombinant adenovirus AxCANCre in 293 cells
The target of data set [1] is T1, Cre recombinase (UniProt P06956 P06956:1-343). The experiment in a line: self x self; intermediate 3. On the procedure: Substrate DNA (1 μg) prepared in (3) and cell extract containing Cre (10 μl) prepared in (1) were incubated at 37° C. for 30 min in a 50 μl volume of buffer containing 50 mM Tris-HCl (pH 7.5)/10 mM MgCl2/1 mg/ml bovine serum albumin/1 mM phenylmethylsulfonyl fluoride (PMSF)/5 μg/ml aprotinin. After completion of the reaction, 45 μl of TE buffer (pH 8.0) and 5 μl of EDTA solution (pH 8.0) were added to the reaction mixture, extracted with phenol/chloroform and with chloroform, followed ethanol precipitation. The recovered DNA was dissolveld in 30 μl of TE buffer (pH 8.0) containing RNase A (20 μg/ml). Half volume thereof was digested with restriction enzyme BsaHI. The DNA bands detected by ethidium bromide (EtBr) staining after agarose gel electrophoresis, were analyzed.
T1 sequence (P06956 whole entry, one chain of several): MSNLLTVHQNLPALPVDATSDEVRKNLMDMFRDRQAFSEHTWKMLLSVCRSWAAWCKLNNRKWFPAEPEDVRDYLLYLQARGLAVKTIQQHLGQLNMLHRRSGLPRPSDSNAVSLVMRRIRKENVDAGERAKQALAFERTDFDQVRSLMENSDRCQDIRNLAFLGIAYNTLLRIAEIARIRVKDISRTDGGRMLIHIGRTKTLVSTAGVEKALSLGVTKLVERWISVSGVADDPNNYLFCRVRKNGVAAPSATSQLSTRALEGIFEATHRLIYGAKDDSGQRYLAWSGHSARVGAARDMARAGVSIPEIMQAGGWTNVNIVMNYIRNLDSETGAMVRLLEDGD
Before recombination mediated by Cre, restriction enzyme BsaHI digestion of linear substrate DNA (approx. 4.1 kb) generates four bands of 2.7 kb, 610 bp, 380 bp and 360 bp. On the other hand, as a result of recombination of substrate DNA mediated by Cre, a circular DNA of approx. 4.0 kb containing one mutant loxP, and a linear DNA of approx. 50 bp consisting of only mutant loxP, are produced. Digestion of these DNA with restriction enzyme BsaHI generates four bands of 2.7 kb, 920 bp, 380 bp and 50 bp (refer to FIG. 6).

Data set [2] has as its target T1, Cre recombinase. In words: self x self; intermediate 2.
Data set [3] addresses T1, Cre recombinase. The experiment in a line: self x self; intermediate 0.

The values below come from US6465254, “Mutant loxP site and applications thereof” (Sumitomo Pharmaceuticals Company, Limited).

B1: mutant loxP #81 (dsDNA)
DNA 1: ATAACTTCGTATAATGTATGTTATACGAAGTTAT
DNA 2: ATAACTTCGTATAACATACATTATACGAAGTTAT
As for B1, the activity in data set [1] came out at 3 grade 0-9 final product.

B2: mutant loxP #4172 (dsDNA)
DNA 1: ATAACTTCGTATAATGCATCCTATACGAAGTTAT
DNA 2: ATAACTTCGTATAGGATGCATTATACGAAGTTAT
Turning to B2, the activity in data set [2] worked out at 4 grade 0-9 final product.

B3: mutant loxP #5171 (dsDNA)
DNA 1: ATAACTTCGTATAATGTGTACTATACGAAGTTAT
DNA 2: ATAACTTCGTATAGTACACATTATACGAAGTTAT
B3: the activity in data set [3] was found to be 6 grade 0-9 final product.

B4: mutant loxP #6171 (dsDNA)
DNA 1: ATAACTTCGTATAATGTACACTATACGAAGTTAT
DNA 2: ATAACTTCGTATAGTGTACATTATACGAAGTTAT
For B4, the activity in data set [3] came to 6 grade 0-9 final product.

B5: mutant loxP #4171 (dsDNA)
DNA 1: ATAACTTCGTATAATGCATACTATACGAAGTTAT
DNA 2: ATAACTTCGTATAGTATGCATTATACGAAGTTAT
B5: the activity in data set [3] came out at 4 grade 0-9 final product.

B6: mutant loxP #2271 (dsDNA)
DNA 1: ATAACTTCGTATAAAGTATACTATACGAAGTTAT
DNA 2: ATAACTTCGTATAGTATACTTTATACGAAGTTAT
For B6, the activity in data set [2] came to 6 grade 0-9 final product.

B7: mutant loxP #2372 (dsDNA)
DNA 1: ATAACTTCGTATAAGGTATCCTATACGAAGTTAT
DNA 2: ATAACTTCGTATAGGATACCTTATACGAAGTTAT
As to B7, the activity in data set [2] turned out to be 0 grade 0-9 final product.
